Results published in article PMC5955111, “The multifunctional protein YB-1 potentiates PARP1 activity and decreases the efficiency of PARP1 inhibitors”.

Tests used:
YB-1 = YB-1 (human, UniProt P67809 1-324); test: fluorescence anisotropy; no PARP1; 100 nM DNA, 0-1600 nM YB-1; 1x RB (composition not in the material); anisotropy at 25 C; EMSA: 37 C 10 min, 7.6% native PAGE in 25 mM Tris-borate pH 8.3 at 4 C; DNA 100 nM (anisotropy), 40 nM in Methods vs 100 nM in Figure 1B legend (EMSA); conditions: protein: recombinant; tags: His-tag; label: 3'-FAM on ODN1; for gel shift ODN1 also 5'-32P; blunt 32-bp duplex with a nick between ODN2 and ODN3; ODN1:ODN2:ODN3 annealed 1:1.2:1.2
YB-1;PARP1 = YB-1;PARP1 (human;human, UniProt P67809;P09874 1-324;1-1014, |); test: fluorescence anisotropy; 200 nM PARP1, 100 nM DNA, 0-1600 nM YB-1; ternary complex; 1x RB (composition not in the material); anisotropy at 25 C; EMSA: 37 C 10 min, 7.6% native PAGE in 25 mM Tris-borate pH 8.3 at 4 C; DNA 100 nM (anisotropy), 40 nM in Methods vs 100 nM in Figure 1B legend (EMSA); conditions: protein: recombinant;recombinant; tags: His-tag;; label: 3'-FAM on ODN1; for gel shift ODN1 also 5'-32P; blunt 32-bp duplex with a nick between ODN2 and ODN3; ODN1:ODN2:ODN3 annealed 1:1.2:1.2
Chain of YB-1;PARP1 (P67809 whole entry, chain 1 of 2): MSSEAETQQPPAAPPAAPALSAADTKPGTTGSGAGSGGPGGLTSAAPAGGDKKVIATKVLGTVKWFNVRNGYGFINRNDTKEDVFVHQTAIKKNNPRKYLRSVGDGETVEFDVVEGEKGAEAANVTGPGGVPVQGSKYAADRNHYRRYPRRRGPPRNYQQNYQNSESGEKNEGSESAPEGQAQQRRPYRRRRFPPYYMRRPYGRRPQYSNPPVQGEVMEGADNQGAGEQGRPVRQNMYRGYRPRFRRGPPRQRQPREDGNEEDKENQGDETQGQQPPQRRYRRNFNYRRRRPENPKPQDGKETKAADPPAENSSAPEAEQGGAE
Chain of YB-1;PARP1 (P09874 whole entry, chain 2 of 2): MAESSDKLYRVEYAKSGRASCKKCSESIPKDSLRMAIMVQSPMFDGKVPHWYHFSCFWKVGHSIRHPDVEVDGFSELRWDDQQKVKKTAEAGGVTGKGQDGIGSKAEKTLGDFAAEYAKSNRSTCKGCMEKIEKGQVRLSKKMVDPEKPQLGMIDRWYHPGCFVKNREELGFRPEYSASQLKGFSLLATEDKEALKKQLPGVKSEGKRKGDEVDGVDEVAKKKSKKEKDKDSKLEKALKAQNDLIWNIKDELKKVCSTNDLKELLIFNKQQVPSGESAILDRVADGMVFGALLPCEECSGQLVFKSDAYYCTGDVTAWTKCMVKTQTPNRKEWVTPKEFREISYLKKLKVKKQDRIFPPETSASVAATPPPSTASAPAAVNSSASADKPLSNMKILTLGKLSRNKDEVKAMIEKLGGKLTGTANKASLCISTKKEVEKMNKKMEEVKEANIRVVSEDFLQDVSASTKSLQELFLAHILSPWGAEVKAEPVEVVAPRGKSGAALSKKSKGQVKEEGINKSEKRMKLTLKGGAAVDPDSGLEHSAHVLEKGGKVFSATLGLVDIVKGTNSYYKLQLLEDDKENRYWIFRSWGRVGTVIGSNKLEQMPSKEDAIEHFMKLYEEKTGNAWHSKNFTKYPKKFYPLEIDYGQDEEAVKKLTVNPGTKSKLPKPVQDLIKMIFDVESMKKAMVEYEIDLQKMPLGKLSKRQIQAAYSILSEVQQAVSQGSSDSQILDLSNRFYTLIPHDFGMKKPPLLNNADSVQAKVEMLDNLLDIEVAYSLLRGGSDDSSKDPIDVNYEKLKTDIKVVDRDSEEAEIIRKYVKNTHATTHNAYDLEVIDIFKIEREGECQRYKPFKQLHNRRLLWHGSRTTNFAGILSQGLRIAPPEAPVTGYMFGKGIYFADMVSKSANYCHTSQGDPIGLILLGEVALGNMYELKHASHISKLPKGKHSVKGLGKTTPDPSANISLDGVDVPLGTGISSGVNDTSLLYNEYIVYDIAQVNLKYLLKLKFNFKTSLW

Chain of YB-1 (P67809 whole entry): as the sequence (P67809 whole entry, chain 1 of 2) above

B1: Nick (ODN1+ODN2+ODN3) (dsDNA)
DNA 1: GGAAGACCCTGACGTTTCCCAACTTTATCGCC
DNA 2: GGCGATAAAGTTGGG
DNA 3: AAACGTCAGGGTCTTCC
Which results are given for B1?
binding result (YB-1): binds; binding result (YB-1;PARP1): binds
